# doi:10.1101/2025.09.12.675771 (bioRxiv, 2025)
# Experiments:
# [1] = molecular target: SARS-CoV-2 RBD (residues 332-527), Lambda variant (SARS-CoV-2, Lambda (C.37), L452Q | F490S)
# [2] = molecular target: SARS-CoV-2 RBD (residues 332-527), BQ.1.1 variant (SARS-CoV-2, Omicron BQ.1.1, R346T | K444T | N460K)
binder,measurement,setting,value
"R1-32-Q61E-WT (antibody, V domains shown) VH: EVQLVQSGAEVKKPGSSVKVSCKASGGTFSSYFISWVRQAPGQGLEWMGGIIPILGIADYAEKFQGRVTITADKSTSTAYMELSSLRSEDTAVYYCARENGYSGYGAAYNFDLWGRGTLVTVSS VL: QSVLTQPPSVSGAPGQRVTISCTGSDSNIGAGYDVHWYQQLPGTAPKLLIYGNSNRPSGVPDRFSGSKSGTSASLAITGLQAEDEADYYCQSYDSSLSGSVFGGGTKLTVL",binding result,[1],binds
same,binding result,[2],binds
